Measurements as given in patent publication US12281155 (INSTITUT PASTEUR, dated 2025).

Legend:
[1] = target: T1, recombinant SARS-CoV-2 Spike RBD domain, JN-1 variant (SARS-CoV-2); assay: competition ELISA, blocking of RBD binding to ACE2 ectodomain
T1 construct: also called RBD JN-1 variant

[2] = target: T2, recombinant SARS-CoV-2 Spike RBD domain, BA.4/5 variant (SARS-CoV-2); assay: as above
T2 construct: also called RBD BA.4/5 variant

[3] = target: T3, recombinant SARS-CoV-2 Spike RBD domain, BA.2.75.2 variant (SARS-CoV-2); assay: as above
T3 construct: also called RBD BA.2.75.2 variant

[4] = target: T4, recombinant SARS-CoV-2 Spike RBD domain, BA.2 variant (SARS-CoV-2); assay: as above
T4 construct: also called RBD BA.2. variant

[5] = target: T5, recombinant SARS-CoV-2 Spike RBD domain, Delta variant (SARS-CoV-2); assay: as above
T5 construct: also called RBD Delta variant

[6] = target: T6, recombinant SARS-CoV-2 Spike RBD domain, XBB.1.5 variant (SARS-CoV-2); assay: as above
T6 construct: also called RBD XBB.1.5 variant

[7] = target: T7, recombinant SARS-CoV-2 Spike RBD domain, XBB.1.16 variant (SARS-CoV-2); assay: as above
T7 construct: also called RBD XBB.1.16 variant

[8] = target: T8, recombinant SARS-CoV-2 Spike RBD domain, BQ.1.1 variant (SARS-CoV-2); assay: as above
T8 construct: also called RBD BQ.1.1. variant

[9] = target: T9, recombinant SARS-CoV-2 Spike RBD domain, EG.5 variant (SARS-CoV-2); assay: as above
T9 construct: also called RBD EG.5.1 variant

[10] = target: T10, recombinant SARS-CoV-2 Spike RBD domain, BA.2.86 variant (SARS-CoV-2); assay: as above
T10 construct: also called RBD BA.2.86 variant

[11] = target: Spike protein of SARS-CoV-2 strain D614G (hCoV-19/France/GE1973/2020) (SARS-CoV-2, UniProt P0DTC2 14-1273); assay: cell-based or functional assay
[12] = target: Spike protein of SARS-CoV-2 strain EG.5.1 (hCoV-19/France/GES-IPP15954/2023) (SARS-CoV-2); assay: cell-based or functional assay
[13] = target: Spike protein of SARS-CoV-2 strain JN.1 (hCoV-19/France/HDF-IPP21391/2023) (SARS-CoV-2); assay: cell-based or functional assay
[14] = target: Spike protein of SARS-CoV-2 strain BA.2.86 (hCoV-19/France/IDF-IPP17625/2023) (SARS-CoV-2); assay: cell-based or functional assay
[15] = target: Spike protein of SARS-CoV-2 strain XBB.1.5 (GISAID EPI_ISL_16353849) (SARS-CoV-2); assay: cell-based or functional assay
[16] = target: Spike protein of SARS-CoV-2 strain XBB.1.16 (hCoV-19/France/GES-IPP7712/2023) (SARS-CoV-2); assay: cell-based or functional assay
[17] = target: T1, recombinant SARS-CoV-2 Spike RBD …; assay: ELISA on coated RBD
[18] = target: T2, recombinant SARS-CoV-2 Spike RBD …; assay: ELISA on coated RBD
[19] = target: T3, recombinant SARS-CoV-2 Spike RBD …; assay: ELISA on coated RBD
[20] = target: T4, recombinant SARS-CoV-2 Spike RBD …; assay: ELISA on coated RBD
[21] = target: T5, recombinant SARS-CoV-2 Spike RBD …; assay: ELISA on coated RBD
[22] = target: T6, recombinant SARS-CoV-2 Spike RBD …; assay: ELISA on coated RBD
[23] = target: T7, recombinant SARS-CoV-2 Spike RBD …; assay: ELISA on coated RBD
[24] = target: T8, recombinant SARS-CoV-2 Spike RBD …; assay: ELISA on coated RBD
[25] = target: T9, recombinant SARS-CoV-2 Spike RBD …; assay: ELISA on coated RBD
[26] = target: T10, recombinant SARS-CoV-2 Spike RBD …; assay: ELISA on coated RBD

| Binder | Blocking % [1] [%] | Blocking % [2] [%] | Blocking % [3] [%] | Blocking % [4] [%] | Blocking % [5] [%] | Blocking % [6] [%] | Blocking % [7] [%] | Blocking % [8] [%] | Blocking % [9] [%] | Blocking % [10] [%] | IC50, S-Fuse neutralization of live virus [11] [µg/mL] | IC50, S-Fuse neutralization of live virus [12] [µg/mL] | IC50, S-Fuse neutralization of live virus [13] [µg/mL] | IC50, S-Fuse neutralization of live virus [14] [µg/mL] | IC50, S-Fuse neutralization of live virus [15] [µg/mL] | IC50, S-Fuse neutralization of live virus [16] [µg/mL] | Binding AUC [17] | Binding AUC [18] | Binding AUC [19] | Binding AUC [20] | other results |
| --- | --- | --- | --- | --- | --- | --- | --- | --- | --- | --- | --- | --- | --- | --- | --- | --- | --- | --- | --- | --- | --- |
| SPK002M A3 antibody (antibody, human IgG1, kappa, V domains shown) VH: EVQLVESGGGLIQPGGSLRLSCAASTITVTSNYMSWVRQAPGKGLEWVSVIYPGGSTFYADSVKGRFTISADNSKNTLYLQMNSLRAEDTAVYYCARDLVVYGMDVWGQGTTVTVSS VL: EIVLTQSPGTLSLSPGERATLSCRASQSVSSSYLAWYQQKPGQAPRLLIYGASSRATGIPGRFSGSGSGTDFTLTISRLEPEDFAVYYCQQGVTFGGGTKVEIKR | 0 | 96 | 96 | 94 | 95 | 95 | 95 | 96 | 79 | 85 | 0.11 | 5.92 | 76.3 | 0.05 | 0.12 | 0.36 | 26 | 30 | 34 | 32 | Binding AUC [21]: 31; Binding AUC [22]: 35; Binding AUC [23]: 31; Binding AUC [24]: 30; Binding AUC [25]: 34; Binding AUC [26]: 38 |
| SPK002M A4 antibody (antibody, human IgG1, kappa, V domains shown) VH: EVQLVESGGGLIQPGGSLRLSCAASVITVTSNYMSWVRQAPGKGLEWVSVIYPGGSTFYADSVKGRFTISADNSKNTLYLQMNSLRAEDTAVYYCARDLVVYGMDVWGQGTTVTVSS VL: EIVLTQSPGTLSLSPGERATLSCRASQSVSSSYLAWYQQKPGQAPRLLIYGASSRATGIPGRFSGSGSGTDFTLTISRLEPEDFAVYYCQQGVTFGGGTKVEIKR | 2 | 96 | 96 | 93 | 93 | 95 | 95 | 96 | 80 | 80 | 0.11 | 2.8 | 54.6 | 0.04 | 0.12 | 0.36 | 31 | 30 | 34 | 29 | Binding AUC [21]: 31; Binding AUC [22]: 35; Binding AUC [23]: 30; Binding AUC [24]: 30; Binding AUC [25]: 34; Binding AUC [26]: 38 |
| SPK002M A2 antibody (antibody, human IgG1, kappa, V domains shown) VH: EVQLVESGGGLIQPGGSLRLSCAASTITVTSNYMSWVRQAPGKGLEWVSVIYPGGSTFYADSVKGRFTISADNSKNTLYLQMNSLRAEDTAVYYCARDLVVYGMDVWGQGTTVTVSS VL: EIVLTQSPGTLSLSPGERATLSCRASQGVSSSYLAWYQQKPGQAPRLLIYGASSRATGIPGRFSGSGSGTDFTLTISRLEPEDFAVYYCQQGVTFGGGTKVEIKR | 1 | 97 | 96 | 94 | 95 | 96 | 96 | 97 | 88 | 85 | 0.1 | 1.65 | 25.3 | 0.05 | 0.1 | 0.33 | 37 | 30 | 34 | 32 | Binding AUC [21]: 31; Binding AUC [22]: 36; Binding AUC [23]: 31; Binding AUC [24]: 30; Binding AUC [25]: 35; Binding AUC [26]: 38 |
| SPK002M A6 antibody (antibody, human IgG1, kappa, V domains shown) VH: EVQLVESGGGLIQPGGSLRLSCAASGITVTSNYMSWVRQAPGKGLEWVSVIYPGGSTFYADSVKGRFTISADNSKNTLYLQMNSLRAEDTAVYYCARDLVVYGMDVWGQGTTVTVSS VL: EIVLTQSPGTLSLSPGERATLSCRASQSVSSSYLAWYQQKPGQAPRLLIYGASSRATGIPGRFSGSGSGTDFTLTISRLEPEDFAIYYCQQGVTFGGGTKVEIKR | – | – | – | – | – | – | – | – | – | – | 0.07 | 21.1 | 100 | 0.63 | 0.36 | 1.34 | – | – | – | – | – |
| SPK002M A1 antibody (antibody, human IgG1, kappa, V domains shown) VH: EVQLVESGGGLIQPGGSLRLSCAASTITVTSNYMSWVRQAPGKGLEWVSVIYPGGSTFYADSVKGRFTISADNSKNTLYLQMNSLRAEDTAVYYCARDLVVYGMDVWGQGTTVTVSS VL: EIVLTQSPGTLSLSPGERATLSCRASQGFSSSYLAWYQQKPGQAPRLLIYGASSRATGIPGRFSGSGSGTDFTLTISRLEPEDFAVYYCQQGVTFGGGTKVEIKR | 71 | 97 | 96 | 95 | 94 | 97 | 97 | 97 | 90 | 85 | 0.08 | 0.15 | 1.28 | 0.02 | 0.07 | 0.17 | 39 | 31 | 34 | 33 | Binding AUC [21]: 31; Binding AUC [22]: 35; Binding AUC [23]: 30; Binding AUC [24]: 30; Binding AUC [25]: 35; Binding AUC [26]: 37 |
| SPK002 antibody (parental version Cv2.3194 described in WO 2022/228827) (antibody, V domains shown) VH: EVQLVESGGGLIQPGGSLRLSCAASGITVTSNYMSWVRQAPGKGLEWVSVIYPGGSTFYADSVKGRFTISRDNSKNTLYLQMNSLRAEDTAVYYCARDLVVYGMDVWGQGTTVTVS VL: EIVLTQSPGTLSLSPGERATLSCRASQSVSSSYLAWYQQKPGQAPRLLIYGASSRATGIPGRFSGSGSGTDFTLTISRLEPEDFAIYYCQQGVTFGGGTKVEIK | – | – | – | – | – | – | – | – | – | – | 0.09 | 100 | 100 | 100 | 216 | 156 | – | – | – | – | – |
